The values below come from the supplement of paper PMC7125110.

The labels stand for the following.
B1: glmS ribozyme (parent)
chain: AUAAAAGCGCCAGAACUACAGAAAUGUAGUUGACGAGGAGGAGGUUUAUCGAAUUUUCGGCGGAUGCCUCCAAA

Settings in all cases: with glucosamine-6-phosphate
Variants of B1 are the subject of data set [1]. The data set is described as follows: self-cleavage kobs at 40 uM GlcN6P; higher = faster cleavage; RNA array. In short, it runs like this:
(§1)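 Glucosamine-6-phosphate (40 μM to 10 mM) in HEPES/KCl/Mg(OAc)2 buffer was flowed over sequenced MiSeq chips, and tiles were imaged over ~14 h. Barcoded ribozyme variants there had been transcribed in situ by E. coli RNA polymerase and were tracked through a hybridised Cy3 probe at 37 °C. One- or two-exponential decay fits to per-tile medians, normalised to baseline and to non-cleaving reference variants, gave kobs. kcat and KM came from weighted Michaelis–Menten fits across concentrations.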

Data set [2] covers variants of B1. Description: self-cleavage kobs at 160 uM GlcN6P; higher = faster cleavage; RNA array. In short, it runs like this:
as §1

Variants of B1 are the subject of data set [3]. The data set is described as follows: self-cleavage kobs at 640 uM GlcN6P; higher = faster cleavage; RNA array. The method in brief:
as §1

The variants in data set [4] derive from B1. The data set is described as follows: self-cleavage kobs at 2500 uM GlcN6P; higher = faster cleavage; RNA array. In short, it runs like this: as §1
The variants in data set [5] derive from B1. The data set is described as follows: self-cleavage kobs at 10000 uM GlcN6P; higher = faster cleavage; RNA array. In short, it runs like this: as §1

± gives the standard error. This sample holds only a part of the variants without activity.

For the variant C34A, in data set [1], the “self-cleavage kobs at 40 uM GlcN6P” value is less than 1e-05 s⁻¹. Moreover, the “self-cleavage kobs at 160 uM GlcN6P” value in data set [2] was less than 1e-05 s⁻¹. In data set [3], the “self-cleavage kobs at 640 uM GlcN6P” value was less than 1e-05 s⁻¹. For the same variant, the “self-cleavage kobs at 2500 uM GlcN6P” value in data set [4] was less than 1e-05 s⁻¹.
C8U G38C G43A G44C G63U: the “self-cleavage kobs at 40 uM GlcN6P” value in data set [1] is less than 1e-05 s⁻¹. Besides, the “self-cleavage kobs at 10000 uM GlcN6P” value in data set [5] was less than 1e-05 s⁻¹.
In the case of U31G A39G, the “self-cleavage kobs at 40 uM GlcN6P” value in data set [1] stood at 0.0004 ± 6e-05 s⁻¹. Further, in data set [2], the “self-cleavage kobs at 160 uM GlcN6P” value turned out to be 0.00122 ± 0.00027 s⁻¹. Also, the “self-cleavage kobs at 640 uM GlcN6P” value in data set [3] is 0.00522 ± 0.0013 s⁻¹. The “self-cleavage kobs at 2500 uM GlcN6P” value in data set [4] is 0.0142 ± 0.0046 s⁻¹.
As to A52G G60A U65G C71U, the “self-cleavage kobs at 40 uM GlcN6P” value in data set [1] was less than 1e-05 s⁻¹.
In the case of C8U A14G A42C, the “self-cleavage kobs at 40 uM GlcN6P” value in data set [1] is less than 1e-05 s⁻¹. For the same variant, the “self-cleavage kobs at 160 uM GlcN6P” value in data set [2] was less than 1e-05 s⁻¹. Moreover, the “self-cleavage kobs at 2500 uM GlcN6P” value in data set [4] was less than 1e-05 s⁻¹.
As for C8G G51U, the “self-cleavage kobs at 40 uM GlcN6P” value in data set [1] was less than 1e-05 s⁻¹. The “self-cleavage kobs at 640 uM GlcN6P” value in data set [3] was less than 1e-05 s⁻¹. The “self-cleavage kobs at 10000 uM GlcN6P” value in data set [5] was less than 1e-05 s⁻¹.
Take A14G G29U C34U: the “self-cleavage kobs at 40 uM GlcN6P” value in data set [1] was less than 1e-05 s⁻¹.
Consider C11G U30C, for which the “self-cleavage kobs at 40 uM GlcN6P” value in data set [1] was less than 1e-05 s⁻¹. Further, in data set [3], the “self-cleavage kobs at 640 uM GlcN6P” value is less than 1e-05 s⁻¹.
Take G9U G29U A42G U65G: the “self-cleavage kobs at 40 uM GlcN6P” value in data set [1] is less than 1e-05 s⁻¹. The “self-cleavage kobs at 10000 uM GlcN6P” value in data set [5] was less than 1e-05 s⁻¹.
U31G G59C: in data set [1], the “self-cleavage kobs at 40 uM GlcN6P” value was less than 1e-05 s⁻¹. The “self-cleavage kobs at 160 uM GlcN6P” value in data set [2] is less than 1e-05 s⁻¹. Moreover, the “self-cleavage kobs at 640 uM GlcN6P” value in data set [3] is less than 1e-05 s⁻¹. Further, the “self-cleavage kobs at 10000 uM GlcN6P” value in data set [5] was less than 1e-05 s⁻¹.
Consider G43U A48C, for which the “self-cleavage kobs at 40 uM GlcN6P” value in data set [1] was less than 1e-05 s⁻¹. Besides, in data set [2], the “self-cleavage kobs at 160 uM GlcN6P” value was less than 1e-05 s⁻¹. For the same variant, the “self-cleavage kobs at 640 uM GlcN6P” value in data set [3] is less than 1e-05 s⁻¹. The “self-cleavage kobs at 2500 uM GlcN6P” value in data set [4] was less than 1e-05 s⁻¹. Further, the “self-cleavage kobs at 10000 uM GlcN6P” value in data set [5] was less than 1e-05 s⁻¹.
For A12U G40U C61A, the “self-cleavage kobs at 40 uM GlcN6P” value in data set [1] was less than 1e-05 s⁻¹. Also, the “self-cleavage kobs at 10000 uM GlcN6P” value in data set [5] was less than 1e-05 s⁻¹.
Turning to G9A G13A C34G U49C C68U, the “self-cleavage kobs at 40 uM GlcN6P” value in data set [1] is less than 1e-05 s⁻¹.
With U47C A48U C70U, the “self-cleavage kobs at 40 uM GlcN6P” value in data set [1] is less than 1e-05 s⁻¹. In data set [3], the “self-cleavage kobs at 640 uM GlcN6P” value is 3.27e-05 ± 1.2e-05 s⁻¹. For the same variant, the “self-cleavage kobs at 10000 uM GlcN6P” value in data set [5] was determined as 0.00044 ± 9.8e-05 s⁻¹.
Consider A14G C50G C68U U69A C71G, for which, in data set [1], the “self-cleavage kobs at 40 uM GlcN6P” value stood at 0.000105 ± 1.7e-05 s⁻¹. For the same variant, the “self-cleavage kobs at 2500 uM GlcN6P” value in data set [4] came to 0.000379 ± 8.1e-05 s⁻¹. Besides, the “self-cleavage kobs at 10000 uM GlcN6P” value in data set [5] is 0.000199 ± 5.1e-05 s⁻¹.
Take G41U C61A: in data set [1], the “self-cleavage kobs at 40 uM GlcN6P” value is less than 1e-05 s⁻¹. For the same variant, in data set [2], the “self-cleavage kobs at 160 uM GlcN6P” value is less than 1e-05 s⁻¹. In addition, the “self-cleavage kobs at 640 uM GlcN6P” value in data set [3] is less than 1e-05 s⁻¹. Besides, the “self-cleavage kobs at 10000 uM GlcN6P” value in data set [5] was less than 1e-05 s⁻¹.
Regarding G37C U54C C61U C67G, the “self-cleavage kobs at 40 uM GlcN6P” value in data set [1] was less than 1e-05 s⁻¹. Besides, the “self-cleavage kobs at 10000 uM GlcN6P” value in data set [5] was less than 1e-05 s⁻¹.
For G38U U47G C70G, the “self-cleavage kobs at 40 uM GlcN6P” value in data set [1] was 0.000113 ± 3.3e-05 s⁻¹. Also, the “self-cleavage kobs at 10000 uM GlcN6P” value in data set [5] was 9.01e-05 ± 2.3e-05 s⁻¹.
In the same order, the values of G38U G59A C68G are 6.06e-05 ± 2.6e-05 s⁻¹ and 4.84e-05 ± 1.9e-05 s⁻¹.
As to A6C C8U C68A C70A, the “self-cleavage kobs at 40 uM GlcN6P” value in data set [1] was less than 1e-05 s⁻¹.
With A53U U56C, in data set [1], the “self-cleavage kobs at 40 uM GlcN6P” value was determined as 5.21e-05 ± 8e-06 s⁻¹. Besides, the “self-cleavage kobs at 160 uM GlcN6P” value in data set [2] stood at 0.000101 ± 1.5e-05 s⁻¹. The “self-cleavage kobs at 640 uM GlcN6P” value in data set [3] amounted to 0.000782 ± 9.1e-05 s⁻¹. The “self-cleavage kobs at 2500 uM GlcN6P” value in data set [4] was 0.00118 ± 0.00021 s⁻¹. Moreover, the “self-cleavage kobs at 10000 uM GlcN6P” value in data set [5] was determined as 0.0038 ± 0.00042 s⁻¹.
For G41C U49G A53G, the “self-cleavage kobs at 40 uM GlcN6P” value in data set [1] was less than 1e-05 s⁻¹.
As to A12C A33C C71G, the “self-cleavage kobs at 40 uM GlcN6P” value in data set [1] was less than 1e-05 s⁻¹. In data set [5], the “self-cleavage kobs at 10000 uM GlcN6P” value was less than 1e-05 s⁻¹.
Regarding C16U U31C G35A G41A G62U, the “self-cleavage kobs at 40 uM GlcN6P” value in data set [1] was less than 1e-05 s⁻¹. Further, in data set [3], the “self-cleavage kobs at 640 uM GlcN6P” value is less than 1e-05 s⁻¹.
Regarding C11U G13A A14C A52C G66A, the “self-cleavage kobs at 40 uM GlcN6P” value in data set [1] is less than 1e-05 s⁻¹. The “self-cleavage kobs at 10000 uM GlcN6P” value in data set [5] was less than 1e-05 s⁻¹.
